Data taken from US20220363763A1 (ABL BIO, published 2022).
Substitutions are numbered along the chain they refer to. Blank lines part the entries; values can stand above or below the binder they belong to.

How the values were obtained:
human LAG3 on cells [1] = biological target: T1, human LAG3 on cells (human, UniProt P18627 23-525); experiment: flow cytometry on activated CD4 T cells
T1 construct: whole, on cells; also called Jurkat-LAG3
T1 sequence (looked up): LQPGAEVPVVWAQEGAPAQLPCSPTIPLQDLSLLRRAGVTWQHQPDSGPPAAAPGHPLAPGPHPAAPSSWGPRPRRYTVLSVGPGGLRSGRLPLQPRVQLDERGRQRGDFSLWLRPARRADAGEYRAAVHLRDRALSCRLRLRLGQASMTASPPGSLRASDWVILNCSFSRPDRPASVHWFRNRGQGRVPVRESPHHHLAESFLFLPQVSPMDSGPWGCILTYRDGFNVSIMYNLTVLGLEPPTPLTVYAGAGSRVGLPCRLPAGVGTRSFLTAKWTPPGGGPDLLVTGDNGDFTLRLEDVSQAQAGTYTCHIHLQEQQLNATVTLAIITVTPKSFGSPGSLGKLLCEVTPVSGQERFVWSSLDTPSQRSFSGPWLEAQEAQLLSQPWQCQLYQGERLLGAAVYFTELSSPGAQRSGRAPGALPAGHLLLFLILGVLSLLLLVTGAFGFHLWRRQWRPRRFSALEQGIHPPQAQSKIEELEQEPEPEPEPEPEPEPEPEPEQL
Method: (§1) To further confirm affinity matured anti-LAG-3 antibodies could bind to cell-derived human LAG3, both inducible hLAG3 expressed Jurkat cells and activated PBMCs were used to test the binding capability of B3807b and B3810. In brief, Jurkat cells were resuspended in FACS buffer. Anti-LAG3 antibodies and isotype control were 4-fold serially diluted in FACS buffer with a dose ranging from 20 nM to 30 pM. The serially diluted antibodies were added to the cell suspension and incubated for 30 minutes on ice. Then after removal of unbound antibodies, cells were stained with anti-human IgG conjugated with Alexa Fluor 633 (Thermo, A21091). Fluorescence measurement was acquired on FACSCelesta flow cytometer and analyzed in Flowjo to determine the mean fluorescence intensities (MFI). To test anti-LAG3 antibodies' ability of binding to native human LAG3, PBMCs from health donor were stimulated with anti-CD3 (BD, 555336) and anti-CD28 (BD, 555725) both at a concentration of 1 ug/ml. Following 3 days' stimulation, cells were harvested and incubated with anti-LAG3 antibodies for 30 mins on ice. The cells were stained with anti-human CD4 and anti-human IgG. Analysis of antibodies binding to CD4+ cells were carried out on FACSCelesta flow cytometry. […] FIG. 31 is a graph showing the binding curve of anti-LAG3 antibodies.

[2] = biological target: T2, recombinant his-tag human LAG3-ECD protein (human, UniProt P18627 23-450); experiment: SPR Biacore T200, capture method as Example 2.7
T2 construct: extracellular domain; not shown: his tag
T2 sequence (looked up): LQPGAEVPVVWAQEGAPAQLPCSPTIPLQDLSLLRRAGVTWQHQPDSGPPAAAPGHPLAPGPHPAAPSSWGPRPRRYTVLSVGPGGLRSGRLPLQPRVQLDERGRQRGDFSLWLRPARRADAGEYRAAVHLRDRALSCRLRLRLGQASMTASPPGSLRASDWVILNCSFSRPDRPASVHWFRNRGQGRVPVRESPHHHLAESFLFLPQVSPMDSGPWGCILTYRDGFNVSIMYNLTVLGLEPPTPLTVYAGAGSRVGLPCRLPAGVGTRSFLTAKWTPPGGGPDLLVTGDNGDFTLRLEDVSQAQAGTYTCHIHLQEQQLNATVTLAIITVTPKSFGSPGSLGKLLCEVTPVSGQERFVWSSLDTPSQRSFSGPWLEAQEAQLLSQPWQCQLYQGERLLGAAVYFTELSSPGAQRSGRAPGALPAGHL

[3] = biological target: T3, human LAG3 (construct not stated) (human, UniProt P18627 23-450, limits assumed); experiment: BLI Octet Red 96, full kinetics, antigen 50-3.125 nM
T3 construct: also called human LAG3 protein; antigen
T3 sequence (looked up): T2 sequence (looked up)
Method: The binding affinity was calculated by software in Octet® RED96 System.

human LAG3 on cells [4] = biological target: T1, human LAG3 on cells; experiment: flow cytometry (MFI) on Jurkat-LAG3 cells, upper panel; EC50 table has no unit, x axis Concentration (nM); Table 31 of the text prints the rounded 1.2
Method: as §1

[5] = biological target: T3, human LAG3 (construct not stated); experiment: BLI Octet Red 96, affinity ranking
human LAG3 on cells [6] = biological target: T1, human LAG3 on cells; experiment: flow cytometry on hLAG3-expressing Jurkat cells
Method: as §1

human LAG3 on cells [7] = biological target: T1, human LAG3 on cells; experiment: flow cytometry (MFI) on activated CD4 T cells, lower panel; EC50 table has no unit, x axis Concentration (nM); Table 31 of the text prints the rounded 0.77
Method: as §1

[8] = biological target: T4, recombinant human LAG-3-ECD-human IgG1 fusion protein (human, UniProt P18627 23-450, biotin-labeled in the MHC class II blocking assays); experiment: ELISA as Example 2.2, coated human LAG3 ECD-Fc
T4 construct: extracellular domain; also called LAG-3-huFc; LAG-3-ECD-huFc; not shown: human IgG1 Fc
T4 sequence (looked up): T2 sequence (looked up)
Method: To evaluate the capability of the anti-LAG-3 antibodies to bind to human, rat, and mouse LAG3 the antibodies identified in Example 2.1 were evaluated for their binding property through ELISA. The human, rat and mouse LAG3 ECD-Fc protein were coated to ELISA plate at 1 μg/ml with 100 μl/well. Antibodies from Example 1 were serially diluted with ELISA diluent buffer. […] The resulting plates were washed and then labeled with anti-human IgG(Fab)-HRP antibody. The S31 can only bind to human LAG3. The S27 and T99 can bind to human LAG3 and rat/mouse LAG3 with lower potency. The S119 antibody can bind to human, rat and mouse LAG3 at high potency (FIGS. 22A-22D).

biotin-labeled LAG3-ECD = biological target: T5, biotin-labeled LAG3-ECD (Homo sapiens (Human), UniProt P18627 23-450, biotin label, site not stated); experiment: ELISA on coated recombinant FGL-1; blocking of the binding of biotin-labeled LAG3-ECD to FGL-1
T5 construct: also called soluble LAG-3; LAG3 protein
T5 sequence: T2 sequence (looked up)
Method: Recombinant FGL-1 were coated on a 96 well plated at a concentration of 1 μg/ml and incubated overnight at 4° C. Serially diluted anti-LAG3 antibody B3807 (starting from 10 μg/ml and 1:3 dilution) and biotin-labeled LAG3-ECD (2 μg/ml) were incubated with FGL-1 coated wells at room temperature for 2 hours. After extensive washing with the wash buffer, streptavidin-HRP was added.

[9] = biological target: T3, human LAG3 (construct not stated); experiment: TR-FRET LAG3 / MHC II binding assay (Cisbio), competitor MHC II
Method: To measure the ability of B3807 to block the interaction between human LAG3 and MHCII, the LAG3 and MHC II binding assay (Cisbio, 64ICP03PEG) was performed utilizing homogeneous TR-FRET technology, following the protocol provided by the kit manufacturer. B3807 was 3-fold diluted ranging from 100 nM to 5 pM (10 points). Fluorescence data was acquired on a PerkinElmer Envision plate reader and a four-parameter dose-response curve was fitted to obtain IC50 of each antibody.

[10] = biological target: T2, recombinant his-tag human LAG3-ECD …; experiment: Biacore, antibody captured, His-tag human LAG3-ECD injected (procedure of Example 2.16(B))
Method: (§2) The binding of B3807 to recombinant His-tag human LAG3-ECD protein was examined by Biacore T200 using a capture method. B3807 was captured using protein A which was immobilized on CM5 sensor chip. Serial concentrations of his-tag human LAG3-ECD protein (0-12 nM) were injected over capture antibodies at the flow rate of 30 μl/min. The dissociation phase was 900 s or 550 s.
(§3) B3807 was used in the following examples for further testing and preparing bispecific antibodies.

[11] = biological target: T2, recombinant his-tag human LAG3-ECD …; experiment: Biacore, antibody captured, His-tag human LAG3-ECD injected (procedure of Example 2.16(B)); column kd(1/s)
Method: as §2, §3

[12] = biological target: T2, recombinant his-tag human LAG3-ECD …; experiment: Biacore T200, B3807 captured on protein A, His-tag human LAG3-ECD injected; column 'KD', unit inferred
Method: as §2

human LAG3 on cells [13] = biological target: T1, human LAG3 on cells; experiment: flow cytometry (MFI) on activated human PBMC (CD4+ cells), lower panel
Method: (§4) To further confirm that B3807 could bind to cell-derived human LAG3, both inducible human LAG3 expressed Jurkat cells and activated PBMCs were used to test the binding capability of B3807. In brief, Jurkat cells were resuspended in FACS buffer. B3807, 25F7 and isotype control were 3-fold serially diluted in FACS buffer with a dose ranging from 20 nM to 9 pM. The serially diluted antibodies were added to the cell suspension and incubated for 30 minutes on ice. Then after removal of unbound antibodies, cells were stained with anti-human IgG conjugated with Alexa Fluor 633 (Thermo, A21091). Fluorescence measurement was acquired on FACSCelesta flow cytometer and analyzed in Flowjo to determine the mean fluorescence intensities (MFI). To test the antibodies' ability of binding to native human LAG3, PBMCs from health donor were stimulated with anti-CD3 (BD, 555336) and anti-CD28 (BD, 555725) both at a concentration of 1 μg/ml. Following 3 days' stimulation, cells were harvested and incubated with anti-LAG3 antibodies for 30 mins on ice. The cells were stained with anti-human CD4 and anti-human IgG. Analysis of antibodies binding to CD4+ cells were carried out on FACSCelesta flow cytometry.

Bio-LAG3 = biological target: T6, Bio-LAG3 (human, UniProt P18627 23-450, limits assumed, biotinylated (sites not given)); experiment: ELISA, Bio-LAG3 held on streptavidin-coated plate
T6 construct: also called human LAG3 protein
T6 sequence (looked up): T2 sequence (looked up)
Method: The streptavidin was coated to an ELISA plate at 2 μg/ml with 100 μl/well. 100 μl of Bio-LAG3 at 1.0 μg/ml was subsequently incubated with streptavidin at RT for 1 hr. B3807, along with a positive control 25F7 and a negative control IgG, were serially diluted with ELISA diluent buffer. To assess binding, the antibodies at various concentrations were added to LAG3 protein-coated plate for 1.5 hr RT. The resulting plates were washed and then labeled with anti-human IgG(Fab)-HRP antibody.

[14] = biological target: T2, recombinant his-tag human LAG3-ECD …; experiment: Biacore, antibody captured, His-tag human LAG3-ECD injected (procedure of Example 2.16(B)); column ka (1/Ms)
Method: as §2, §3

human LAG3 on cells [15] = biological target: T1, human LAG3 on cells; experiment: flow cytometry (MFI) on human LAG3-expressing Jurkat cells, upper panel
Method: as §4

[16] = biological target: T7, human LAG3-His protein (Sinobio, 16498-H08H) (human, UniProt P18627 23-450); experiment: ELISA on coated LAG3-His
T7 construct: also called human LAG3 protein; not shown: His tag
T7 sequence (looked up): T2 sequence (looked up)
Source text: To evaluate the binding activity to PD-L1 and LAG3 of the bispecific antibodies (BsAb; H12x147 and 147xH12) prepared in Example 3, the BsAb were subjected to ELISA test.

human PD-L1-Fc protein = biological target: T8, human PD-L1-Fc protein (human, UniProt Q9NZQ7 19-239); experiment: ELISA on coated PD-L1-Fc
T8 construct: Coated on ELISA plates; also called huPD-L1; not shown: Fc part
T8 sequence (Q9NZQ7 19-239 limits assumed): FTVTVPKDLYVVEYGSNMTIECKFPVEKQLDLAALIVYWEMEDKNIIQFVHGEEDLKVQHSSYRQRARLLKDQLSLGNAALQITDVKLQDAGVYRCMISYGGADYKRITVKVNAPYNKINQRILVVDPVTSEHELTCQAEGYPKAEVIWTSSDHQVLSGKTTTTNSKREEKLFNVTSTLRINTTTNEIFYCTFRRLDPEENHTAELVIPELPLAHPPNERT

EC50 (human LAG3 on cells [1]): 0.77 nM
Kd [2]: 14 nM
koff [2]: 0.03 s⁻¹
kon [2]: 2.2e+06 M⁻¹ s⁻¹
Kd [3]: 18.2 nM
koff [3]: 0.0019 s⁻¹
kon [3]: 104000 M⁻¹ s⁻¹
EC50 (human LAG3 on cells [4]): 1.23 nM
Kd [5]: 21.6 nM
koff [5]: 0.00234 s⁻¹
kon [5]: 108000 M⁻¹ s⁻¹
EC50 (human LAG3 on cells [6]): 1.2 nM
EC50 (human LAG3 on cells [7]): 0.767 nM
EC50 [8]: 6.5 nM
B1: 147H-13 (antibody, V domains shown)
VH: EVQLVQSGAEVKKPGASVKVSCKASGYTFTNYWLGWIKQAPGQGLEWIGDIYPGGDYINYNEKFKGKATLTADTSISTAYMELSRLRSDDTAVYYCARPNLPGDYWGQGTTVTVSS
VL: DIVMTQSPLSLPVTPGEPASISCRSSKSLLHSNGITYLYWYLQKPGQSPQLLIYQVSNLASGVPDRFSGSGSGTDFTLKISRVEAEDVGVYYCAQNLELPWTFGGGTKVEIK
notes: Common light chain; human gamma 1 / kappa constant domains; also called 147H4-13

IC50 (read off the curve) (biotin-labeled LAG3-ECD): ~0.2 µg/mL
IC50 [9]: 0.41 nM
Kd [10]: 0.915 nM
koff [11]: 0.00517 s⁻¹
Kd [12]: 0.464 nM
EC50 (human LAG3 on cells [13]): 0.32 nM
EC50 (Bio-LAG3): 0.06 nM
kon [14]: 5.66e+06 M⁻¹ s⁻¹
EC50 (human LAG3 on cells [15]): 0.06 nM
B2: 147H 3807 (antibody, V domains shown)
VH: B1 VH with N59V, G103K, Y105H
VL: B1 VL with N33Q, N96Y
notes: also called B3807

binding result [16]: binds
binding result (human PD-L1-Fc protein): binds
B3: H12x147 (bispecific antibody, human IgG1, kappa, N297A)
heavy: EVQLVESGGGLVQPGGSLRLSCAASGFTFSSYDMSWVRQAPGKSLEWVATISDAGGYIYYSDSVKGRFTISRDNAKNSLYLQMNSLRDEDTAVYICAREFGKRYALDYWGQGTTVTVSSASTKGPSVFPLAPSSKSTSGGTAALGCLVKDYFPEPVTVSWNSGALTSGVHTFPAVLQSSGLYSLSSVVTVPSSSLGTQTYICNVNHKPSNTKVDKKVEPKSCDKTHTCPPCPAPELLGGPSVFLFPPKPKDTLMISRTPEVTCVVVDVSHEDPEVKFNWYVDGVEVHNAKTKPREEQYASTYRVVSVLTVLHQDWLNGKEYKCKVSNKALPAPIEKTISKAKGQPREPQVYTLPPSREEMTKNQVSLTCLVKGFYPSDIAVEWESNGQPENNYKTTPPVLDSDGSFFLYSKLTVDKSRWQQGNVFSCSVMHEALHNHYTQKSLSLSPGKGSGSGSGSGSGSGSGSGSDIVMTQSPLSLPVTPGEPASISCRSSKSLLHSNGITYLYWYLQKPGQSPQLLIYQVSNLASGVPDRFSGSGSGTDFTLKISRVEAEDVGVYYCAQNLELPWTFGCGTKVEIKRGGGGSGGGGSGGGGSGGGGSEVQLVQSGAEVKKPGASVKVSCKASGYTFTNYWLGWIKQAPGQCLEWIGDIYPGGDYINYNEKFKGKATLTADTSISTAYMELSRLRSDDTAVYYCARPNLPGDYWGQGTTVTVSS
light: DIQMTQSPSSLSASVGDRVTITCKASQDVTPAVAWYQQKPGKAPKLLIYSTSSRYTGVPSRFSGSGSGTDFTFTISSLQPEDIATYYCQQHYTTPLTFGQGTKLEIKRTVAAPSVFIFPPSDEQLKSGTASVVCLLNNFYPREAKVQWKVDNALQSGNSQESVTEQDSKDSTYSLSSTLTLSKADYEKHKVYACEVTHQGLSSPVTKSFNRGEC
notes: also called L1A3
